Key:
[1] = Activated partial thromboplastin time (APTT) in arteriovenous shunt model; type: in vivo, Sprague-Dawley male rats; details: SEQ ID NO:2 33.3 mg/kg i.v. 5 min prior; Rivaroxaban 10 mg/kg p.o. 90 min prior
[2] = Ferric chloride induced arterial thrombosis model (clot weight and size); type: in vivo, Sprague-Dawley rats; details: 60 min after FeCl3; SEQ ID NO:2 5, 20, 40 mg/kg i.v.; Rivaroxaban 10 mg/kg oral; Warfarin 0.5 mg/kg i.v.
Method: Animal handling was performed according to guidelines of the National Institute of Health (NIH) and the Association for Assessment and Accreditation of Laboratory Animal Care (AAALAC). A total of 36 Sprague-Dawley rats (Envigo RMS) were divided into six groups comprising of 6 animals per group (3 males and 3 females). […] Both were fed ad libitum a rodent diet. Animals had free access to autoclaved and acidified drinking water. Animals were housed under standard laboratory conditions, air conditioned and filtered with adequate fresh air supply. Animals were kept in a climate controlled environment.
SEQ ID NO:2 (Biospring) (100 mg) was dissolved in 5 ml saline to form a stock solution of 20 mg/ml. Vehicle (saline, Teva) as ready to use for i.v. administration. Rivaroxaban (Bayer, Pharamseed Ltd) dosing solution was diluted at 10 mg/kg (Group 2M). Warfarin (Ceriliant, Pharmaseed Ltd) was diluted at 0.5 mg/kg (Group 3M). […]
Male and Female rats were anaesthetized by intraperitoneal injection of ketamine/xylazine. […] The time needed for occlusion to occur was measured for up to 60 min, and occlusion time was assigned a value of 60 min for vessels that […].
Clot formation was followed for 60 minutes following application of FeCl3. […] The artery wall was cut longitudinally; clot was taken out, weighed and measured by caliper. […]

[3] = test system: IL-10, TNF, IL-6 and IL-1β in serum; experiment: LPS-induced cytokine production model, serum cytokines; type: in vivo, C57BL/6 mice; details: 2 h after LPS
Method: Female C57BL/6 mice (Taconic Biosciences) were 8 weeks of age at the start of the study. Animals had free access to autoclaved and acidified drinking water. Animals were housed under standard laboratory conditions, air conditioned and filtered with adequate fresh air supply. Animals were kept in a climate controlled environment.
SEQ ID NO:2 (Biospring) (100 mg) was dissolved in 5 ml saline to form a stock solution of 20 mg/ml. Vehicle is saline solution.
Dexamethasone stock was prepared by mixing dexamethasone and beta-cyclodextrin at a 4:96 ratio, solubilized in PBS at 2 mg dexamethasone/mL and stored at −20° C. Dosing solution of dexamethasone was prepared by diluting the stock solution to 1 mg/mL with PBS. Dexamethasone administered at 5 to 10 mg/kg, i.p. is used as a positive control for suppression of the immune response.
Two hours after LPS injection mice were bled and serum was isolated and added to EDTA in Gel Clot Activator tubes. At least 100 μl has been analysed. The concentration of IL-10, TNF, IL-6 and IL-1β in serum was measured using eBioscience's Luminex kit, according to manufacturer's protocol. A single analysis was performed on every sample.

[4] = Comparable ex vivo APTT study, mouse
[5] = Prothrombin time in arteriovenous shunt model; type: in vivo, Sprague-Dawley male rats; details: SEQ ID NO:2 33.3 mg/kg i.v. 5 min prior; Rivaroxaban 10 mg/kg p.o. 90 min prior
Method: FIG. 2: Anti-coagulant activity of SEQ ID NO:2 in Arteriovenous Shunt model. Male rats were intravenously injected with saline (Vehicle) or SEQ ID NO:2 solution, according to their body weight. Rivaroxaban was orally administered to the positive control group. 5 to 90 minutes after administration, rats were anesthetized with pentobarbital-na (50 mg/kg). The left jugular vein and the right carotid artery of anesthetized rats were connected with two catheters. The thrombus weight formed on the thread was calculated by subtracting the average weight of the rough nylon thread (A). Prothrombin times were measured (B) and Activated partial thromboplastin times (APTT) were analysed (C). Each bar represents the mean±SEM (n=8 for vehicle and rivaroxaban groups, n=3 for SEQ ID NO:2 group), *p<0.05, **p<0.01, ***p<0.001 vs Vehicle.
The animals were assigned to 3 dosing groups according to the body weight (see table 2). Vehicle treated animals were intravenously injected with saline 90 min prior to shunt assay. The positive control treated animals were orally given Rivaroxaban 10 mg/kg at 90 min prior to shunt assay. SEQ ID NO:2 was intravenously injected 5 min prior to shunt assay.

[6] = 25 mg/kg i.v., not statistically significant
[7] = 50 mg/kg i.v., not statistically significant

B1: SEQ ID NO:2: nucleic acid sequence of SEQ ID NO:1 in which each C and U is fluorinated to increase stability in plasma (nucleic acid)
chain: GGGAAUUCGAGCUCGGUACCAACAAUACGACUACACCAUCAAAAGUAUUAUCUUGCAUCGAAGGUUGGCACGUAGCAAGCUCUGCAGUCG
modifications: fluorinated C and U; (6)..(7) uracil is fluorinated; (8)..(8) cytosine is fluorinated; (12)..(12) cytosine is fluorinated; (13)..(13) uracil is fluorinated; (14)..(14) cytosine is fluorinated; (17)..(17) uracil is fluorinated; (19)..(20) cytosine is fluorinated; (23)..(23) cytosine is fluorinated; (26)..(26) uracil is fluorinated; (28)..(28) cytosine is fluorinated; (31)..(31) cytosine is fluorinated; (32)
[1]
  Activated Partial Thromboplastin Time (APTT) compared to vehicle group: significant increase
[2]
  clot size compared to control group (Vehicle): reduction
  clot weight compared to control group (Vehicle): reduction
[3]; 5 mg/kg i.v.
  IL-1β concentration in serum compared to vehicle group: similar
  IL-6 concentration in serum compared to vehicle group: similar
  TNF concentration in serum compared to vehicle group: similar
[3]; 25 mg/kg i.v. 5 min before LPS
  serum concentration of IL-10, difference to vehicle group: significant
[3]; [6]
  IL-1β concentration in serum compared to vehicle group: lower
  IL-6 concentration in serum compared to vehicle group: lower
  TNF concentration in serum compared to vehicle group: lower
[3]; 50 mg/kg i.v. 5 min before LPS
  serum concentration of IL-10, difference to vehicle group: significant
[3]; 50 mg/kg i.v.
  reduction in IL-1β concentration in serum compared to vehicle group: statistically significant
[3]; [7]
  IL-6 concentration in serum compared to vehicle group: lower
  TNF concentration in serum compared to vehicle group: lower
[3]; SEQ ID NO:2 groups (5, 25, 50 mg/kg i.v.) 5 min before LPS
  serum concentration of IL-10 compared to vehicle group: increase
[4]
  positive effect on APTT: confirmed
[5]
  Prothrombin times compared to vehicle group: did not show any significant difference
